Measured values as given in the supplement of paper PMC12636428.

System: Saccharomyces cerevisiae
Assay: transcriptional activation domain activity (GFP:mCherry ratio, weighted mean of sorted bins, harmonized to initial dataset scale) (arbitrary fluorescence ratio units); higher = stronger transcriptional activation
Conditions: beta-estradiol 1 µM; induction time 4 h
In short: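 Activation activity, the read-weighted mean of bin median fluorescence averaged across barcodes, was linearly mapped onto the scale of the initial dataset. It was measured for barcoded protein tiles fused to an estradiol-inducible synthetic transcription factor at URA3 in GFP-reporter yeast diploids. Cultures diluted 1:5 into SC with 1 uM beta-estradiol were held 4 hours at 30 °C, sorted into 8 bins by GFP:mCherry ratio, and barcode-sequenced, and tiles under 50 reads were discarded.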

Going from “SRVMRHFSAVEAGCFLWIWILVRIEGGMLLVNLYLDTTRITSTILNLYTACTG” to “AGQLGYDPVFGICWYNNSDPAMKLRWMLGSQLFWLLFMSTSEVVFFLVLVCFM”, the “transcriptional activation domain activity” value falls from 78500 to 43500.

Going from “MNHTSRFFSPFFLFSLFLSFPSFLLPCFLLLFLFLPFLPPSLSLLSLILYKFW” to “AAAPAAAANDGTTKKKGKGQKATRSPKGKGKSKKKGKGAAAAAAAPAAAKAVS”, the “transcriptional activation domain activity” value falls from 31900 to 14600.

Compared with “MMLWWRWRWILLLMLMLMLRWRWWWHTSLWWRWSKCLLTRLLLLLLLWWWDSF”, “MTVIRFLKMIGPFFFLLLSFLLFPFFFFFIPFKMTLLSFLLLFPLFILHSVHC” is lower in “transcriptional activation domain activity” value: 55000 for the first, 47500 for the second.

Compared with “MLQHSWCFIFRLFDPLFFFFFFFFSTWNAIVGRWVFSLSFEPFFVRLLHLILY”, “MSTEEQADGAPSSASDAGLKIWSCVTCRRRKVRCDRRDPCSNCVRAAIDCHYP” is lower in “transcriptional activation domain activity” value: 37700 for the first, 30100 for the second.

First: VNSHGYKHISNLDELDDLLSLTYSDNNLLSASNNSDFNNSNNGIINTADTQNS
Second: MLGSARVWQKRACMGFSFSLVIVSFTPPHRLFSHVQLGSIVSLLFFVTLFNFM
The “transcriptional activation domain activity” value of the first is higher: 106000 for the first, 20700 for the second.

Compared with “EDEASASTDNDEATTKTEKQPKKKAKAEKVADCEAVVKKKAPAKRQSKKEANQ”, “MGRLGTLGLSQEQLDNLRYYKYAAVDRSQLTKYVLRHYWNWAITLFPTWIAPN” is lower in “transcriptional activation domain activity” value: 41600 for the first, 32100 for the second.

Going from “ENLRTVGLGSVRDICLRNASEQAILTIIDFPLRVLAMIAQIRTGLWVRNGFAI” to “KDKNKEKERGKHKHRRRERDGDGDGDEEDGRSSKKHKKERGQKRSEKEGGGED”, the “transcriptional activation domain activity” value falls from 53000 to 42100.

Compared with “EQDAFFPWLWIDPQFPEDPVLGSWDTFLGDFNCGMPLDDLDFALDMLQYSVGA”, “VLLYTGLLKFFNLGVLTATLVEVCKRPWRIRMANGRVDRMKYFNLVFGIVWEC” is lower in “transcriptional activation domain activity” value: 161000 for the first, 58700 for the second.

Compared with “GHDGPQQQQQRKKPAAAAAAGKGKEKGKGKGKGQVVVVASKPAKKAASAAAAA”, “QSQPAKQPAKQPATKKSSKSKGSKKSKGSKGKGSRGSKSKAKGSRSKAKGKAH” is lower in “transcriptional activation domain activity” value: 28700 for the first, 23600 for the second.

First: TAATVPSATRAVVSATCRATALRVRSATTAAVTTTSPATARLPARPAPATTAS
Second: MLFIFFVIFFYFFLFSSIFFYHFIFLFSLELSLYFVDLSLELIPIYFPVCILS
The “transcriptional activation domain activity” value of the first is lower: 34000 for the first, 46300 for the second.

Compared with “LIPIVVLNMYSLLMLLFIRGWFSYLIAVVSISGVLVLHMLYFLLQWRLKYILW”, “AIYSNIMGFLGGVAWAMLVAHICQLFPNACAAAIVTRFFRIMYQWKWPQPVLL” is lower in “transcriptional activation domain activity” value: 65600 for the first, 64900 for the second.

Going from “QRMGSMVQRVQSTCRKCRGEGKILLEKDRCKKCAGRGIVKASKKLEVHVDKGM” to “PVVDLNSCFSNGFNNEKQEIEMETDDSPILLMSSSASRENSNTFSVIQRTPDG”, the “transcriptional activation domain activity” value rises from 20000 to 52900.

First: SIEDMTGWKLLHGDVFRAPPNGNILAPLVGSGCQLVYMATGLLMLSCLGILNP
Second: GVDGDGAADADADEDDEEGEEDEDDEGGGAGRKRKKARMEAAPKAKPKPAPAK
The “transcriptional activation domain activity” value of the first is higher: 41600 for the first, 27700 for the second.

Going from “LYLSVLYIIVFTFLPGYTFIFTLTYGYGFAARGLSFLALGVGFLSSLILVIPV” to “YSNSISNSNSNSTGNLNSSYFNSLNIDSMLDDYVSSDLLLNDDDDDTNLSRRR”, the “transcriptional activation domain activity” value rises from 46500 to 88700.

Going from “AMERLRAAEKTAKEKRLCLYANAPAANSSSKGTTAATSRGGAFEATVVRVWSG” to “MLYSFSFTTIGYILAFNPPDGRFFYLMLLGLFVQHLIVYVILFVLILLPICVY”, the “transcriptional activation domain activity” value falls from 61100 to 34300.
